The record followed here is patent publication US20150210756A1 (NEW YORK UNIVERSITY, published 2015).

Assay [1] addresses T1, Recombinant LukA′B toxoid complex (S. aureus, UniProt Q2FFA2 28-351; P21224 30-338).
T1 construct: also called modified LukA′B toxoid complex
T1 sequence 1: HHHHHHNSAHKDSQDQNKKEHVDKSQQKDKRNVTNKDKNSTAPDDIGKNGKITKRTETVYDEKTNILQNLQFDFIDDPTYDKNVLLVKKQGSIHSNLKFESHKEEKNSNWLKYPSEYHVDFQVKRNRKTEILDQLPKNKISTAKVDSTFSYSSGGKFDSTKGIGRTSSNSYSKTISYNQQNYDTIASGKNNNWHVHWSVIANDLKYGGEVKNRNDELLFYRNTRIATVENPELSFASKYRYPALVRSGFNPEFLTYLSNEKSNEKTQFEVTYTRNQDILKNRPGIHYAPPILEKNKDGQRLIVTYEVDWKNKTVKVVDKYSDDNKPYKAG
T1 sequence 2: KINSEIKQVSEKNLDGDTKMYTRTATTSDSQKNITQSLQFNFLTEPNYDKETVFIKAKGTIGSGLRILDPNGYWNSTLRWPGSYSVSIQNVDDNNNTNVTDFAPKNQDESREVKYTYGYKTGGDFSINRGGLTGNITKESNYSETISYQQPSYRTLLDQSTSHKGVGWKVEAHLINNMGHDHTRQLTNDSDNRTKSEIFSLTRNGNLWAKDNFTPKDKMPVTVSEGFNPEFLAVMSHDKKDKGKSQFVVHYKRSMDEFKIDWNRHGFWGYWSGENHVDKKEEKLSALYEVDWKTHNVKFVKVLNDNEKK
Kind of assay: ELISA after cis-display panning. In general terms: ELISA stands for enzyme-linked immunosorbent assay.

The target in assay [2] is T2, Protein A (Staphylococcus aureus, UniProt P38507 37-477).
T2 construct: also called S. aureus Protein A; SpA
Kind of assay: direct ELISA on coated biotinylated Protein A.

The target of assay [3] is human FcγRIIIa (V158) (human, UniProt P08637 17-208). Kind of assay: AlphaScreen competition against biotinylated IgG1. For orientation: Alpha assays give light when donor and acceptor beads are brought close together.
The target of assay [4] is human FcγRI (human, UniProt P12314 16-288). In words: AlphaScreen competition against biotinylated IgG1.
The target in assay [5] is T3, HlgC (S. aureus, UniProt Q07227 30-315).
T3 construct: also called gamma hemolysin C; HlgC subunit
T3 sequence: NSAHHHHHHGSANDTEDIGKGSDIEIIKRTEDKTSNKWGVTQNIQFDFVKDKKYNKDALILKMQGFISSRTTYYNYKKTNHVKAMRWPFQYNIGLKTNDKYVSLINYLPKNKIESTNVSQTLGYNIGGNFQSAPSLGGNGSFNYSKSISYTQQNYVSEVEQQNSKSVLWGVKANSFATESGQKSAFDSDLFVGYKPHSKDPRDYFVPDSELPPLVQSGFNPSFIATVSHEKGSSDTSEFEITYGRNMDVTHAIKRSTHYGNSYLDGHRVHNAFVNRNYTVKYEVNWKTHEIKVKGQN
Kind of assay: ELISA on purified, recombinant HlgC.

For assay [6], the target named is T4, HlgA (S. aureus, UniProt P0A071 30-309).
T4 construct: also called gamma hemolysin A; HlgA subunit
T4 sequence: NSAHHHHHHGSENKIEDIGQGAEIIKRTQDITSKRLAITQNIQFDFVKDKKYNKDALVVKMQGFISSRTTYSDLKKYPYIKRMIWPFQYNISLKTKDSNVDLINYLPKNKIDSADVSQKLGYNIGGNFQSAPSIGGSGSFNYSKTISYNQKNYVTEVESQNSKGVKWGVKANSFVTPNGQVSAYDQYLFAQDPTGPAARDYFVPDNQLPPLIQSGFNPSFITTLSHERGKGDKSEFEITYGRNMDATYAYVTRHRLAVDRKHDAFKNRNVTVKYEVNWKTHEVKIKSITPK
In words: ELISA on purified, recombinant HlgA.

Assay [7] concerns the target T5, LukD (S. aureus, UniProt Q2FXB1 27-327).
T5 construct: also called leukotoxin D
T5 sequence: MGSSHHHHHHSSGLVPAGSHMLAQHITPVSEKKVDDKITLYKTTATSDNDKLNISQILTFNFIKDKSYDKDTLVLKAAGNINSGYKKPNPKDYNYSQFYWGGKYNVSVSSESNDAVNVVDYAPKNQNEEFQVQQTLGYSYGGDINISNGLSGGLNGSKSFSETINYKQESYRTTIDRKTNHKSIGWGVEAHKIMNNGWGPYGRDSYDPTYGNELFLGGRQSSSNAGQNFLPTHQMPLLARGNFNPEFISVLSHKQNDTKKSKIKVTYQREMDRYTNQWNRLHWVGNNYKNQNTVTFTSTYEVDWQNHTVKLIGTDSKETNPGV
Kind of assay: ELISA after cis-display panning.

human FcγRI, sequence (P12314 16-288 limits assumed): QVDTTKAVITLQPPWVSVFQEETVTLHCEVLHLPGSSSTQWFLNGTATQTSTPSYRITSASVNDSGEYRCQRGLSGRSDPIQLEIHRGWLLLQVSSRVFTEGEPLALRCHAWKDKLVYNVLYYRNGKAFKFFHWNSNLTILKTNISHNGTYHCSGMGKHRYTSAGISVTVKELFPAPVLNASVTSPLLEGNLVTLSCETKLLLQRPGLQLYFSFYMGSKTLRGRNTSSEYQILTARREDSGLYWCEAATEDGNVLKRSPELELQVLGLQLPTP
human FcγRIIIa (V158), sequence (P08637 17-208 F176V limits assumed): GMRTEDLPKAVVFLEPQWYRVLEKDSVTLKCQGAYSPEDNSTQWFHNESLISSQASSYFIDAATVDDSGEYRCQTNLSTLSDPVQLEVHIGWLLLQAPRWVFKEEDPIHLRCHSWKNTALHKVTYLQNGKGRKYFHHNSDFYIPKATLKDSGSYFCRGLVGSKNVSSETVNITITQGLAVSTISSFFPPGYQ

B1: Luk24 (designed binder)
chain: LPAPKNLVVSRVTEDSARLSWTAPDAAFDSFQIGYFELWPNGEAIVLTVPGSERSYDLTGLKPGTEYEVFIRGVKGGLYSYPLSAIFTT
notes: not shown: C-terminal poly-histidine tag
B1: the binding result in assay [1] was “binds”.

B2: CR5133 PRASA A6 LC-D (Construct 5) (other)
heavy: EVQLVETGGGLVKPGGSLRLSCSASRFSFRDYYMTWIRQAPGKGPEWVSHISGSGSTIYYADSVRGRFTISRDNAKSSLYLQMDSLQADDTAVYYCARGGRATSYYWVHWGPGTLVTVSSASTKGPSVFPLAPSSKSTSGGTAALGCLVKDYFPEPVTVSWNSGALTSGVHTFPAVLQSSGLYSLSSVVTVPSSSLGTQTYICNVNHKPSNTKVDKKVEPKSCDKTHTCPPCPAPPVAGPDVFLFPPKPKDTLMISRTPEVTCVVVDVSHEDPEVKFNWYVDGVEVHNAKTKPREEQYNSTYRVVSVLTVLHQDWLNGKEYKCKVSNAALPAPIAKTISKAKGQPREPQVYTLPPSRDELTKNQVSLTCLVKGFYPSDIAVEWESNGQPENNYKTTPPVLDSDGSFFLYSKLTVDKSRWQQGNVFSCSVMHEALHNRFTQKSLSLSPGK
light: EIVLTQSPATLSLSPGERATLSCRASQSVSGYLGWYQQKPGQAPRLLIYGASSRATGIPDRFSGSGSGTDFTLTISRLEPEDFAVYYCQQYGSSPLTFGGGTKLEIKRTVAAPSVFIFPPSDEQLKSGTASVVCLLNNFYPREAKVQWKVDNALQSGNSQESVTEQDSKDSTYSLSSTLTLSKADYEKHKVYACEVTHQGLSSPVTKSFNRGECGGGGSGGGGSGGGGSGGGGSLPAPKNLVVSRVTEDSARLSWRAKPWAPKFDSFLIQYQESEKVGEAIVLTVPGSERSYDLTGLKPGTEYTVSIYGVKASEKFIESNPLSAIFTT
Turning to B2, the figures for the binding result in assay [2], in assay [3] and in assay [4] were “no binding”, “binds” and “no binding”, respectively.

B3: CR5133 PRASA A6 LC-D HC-AB (Construct 7) (other)
heavy: EVQLVETGGGLVKPGGSLRLSCSASRFSFRDYYMTWIRQAPGKGPEWVSHISGSGSTIYYADSVRGRFTISRDNAKSSLYLQMDSLQADDTAVYYCARGGRATSYYWVHWGPGTLVTVSSASTKGPSVFPLAPSSKSTSGGTAALGCLVKDYFPEPVTVSWNSGALTSGVHTFPAVLQSSGLYSLSSVVTVPSSSLGTQTYICNVNHKPSNTKVDKKVEPKSCDKTHTCPPCPAPPVAGPDVFLFPPKPKDTLMISRTPEVTCVVVDVSHEDPEVKFNWYVDGVEVHNAKTKPREEQYNSTYRVVSVLTVLHQDWLNGKEYKCKVSNAALPAPIAKTISKAKGQPREPQVYTLPPSRDELTKNQVSLTCLVKGFYPSDIAVEWESNGQPENNYKTTPPVLDSDGSFFLYSKLTVDKSRWQQGNVFSCSVMHEALHNRFTQKSLSLSPGKGGGGSGGGGSGGGGSGGGGSMLPAPKNLVVSRVTEDSARLSWTAPDAAFDSFWITYEEKFYRGEAIVLTVPGSERSYDLTGLKPGTEYKVWIVGVKGGQGSWPLSAIFTT
light: EIVLTQSPATLSLSPGERATLSCRASQSVSGYLGWYQQKPGQAPRLLIYGASSRATGIPDRFSGSGSGTDFTLTISRLEPEDFAVYYCQQYGSSPLTFGGGTKLEIKRTVAAPSVFIFPPSDEQLKSGTASVVCLLNNFYPREAKVQWKVDNALQSGNSQESVTEQDSKDSTYSLSSTLTLSKADYEKHKVYACEVTHQGLSSPVTKSFNRGECGGGGSGGGGSGGGGSGGGGSLPAPKNLVVSRVTEDSARLSWRAKPWAPKFDSFLIQYQESEKVGEAIVLTVPGSERSYDLTGLKPGTEYTVSIYGVKASEKFIESNPLSAIFTT
notes: also called PRASA A6 LC-D AB construct 7
Regarding B3, the binding result in assay [2] is reported as “no binding”; in assay [3], “binds”; in assay [4], “no binding”.

B4: CR5133 PRASA A6 HC-AB (Construct 6) (other)
heavy: EVQLVETGGGLVKPGGSLRLSCSASRFSFRDYYMTWIRQAPGKGPEWVSHISGSGSTIYYADSVRGRFTISRDNAKSSLYLQMDSLQADDTAVYYCARGGRATSYYWVHWGPGTLVTVSSASTKGPSVFPLAPSSKSTSGGTAALGCLVKDYFPEPVTVSWNSGALTSGVHTFPAVLQSSGLYSLSSVVTVPSSSLGTQTYICNVNHKPSNTKVDKKVEPKSCDKTHTCPPCPAPPVAGPDVFLFPPKPKDTLMISRTPEVTCVVVDVSHEDPEVKFNWYVDGVEVHNAKTKPREEQYNSTYRVVSVLTVLHQDWLNGKEYKCKVSNAALPAPIAKTISKAKGQPREPQVYTLPPSRDELTKNQVSLTCLVKGFYPSDIAVEWESNGQPENNYKTTPPVLDSDGSFFLYSKLTVDKSRWQQGNVFSCSVMHEALHNRFTQKSLSLSPGKGGGGSGGGGSGGGGSGGGGSMLPAPKNLVVSRVTEDSARLSWTAPDAAFDSFWITYEEKFYRGEAIVLTVPGSERSYDLTGLKPGTEYKVWIVGVKGGQGSWPLSAIFTT
light: EIVLTQSPATLSLSPGERATLSCRASQSVSGYLGWYQQKPGQAPRLLIYGASSRATGIPDRFSGSGSGTDFTLTISRLEPEDFAVYYCQQYGSSPLTFGGGTKLEIKRTVAAPSVFIFPPSDEQLKSGTASVVCLLNNFYPREAKVQWKVDNALQSGNSQESVTEQDSKDSTYSLSSTLTLSKADYEKHKVYACEVTHQGLSSPVTKSFNRGEC
notes: also called mAb 5133 PRASA A6 HC LukAB
As for B4, the binding result is given as “no binding” in assay [2], “binds” in assay [3] and “no binding” in assay [4].

B5: Luk19 (designed binder)
chain: LPAPKNLVVSRVTEDSARLSWYHAIHRLNHFDSFLIQYQESEKVGEAIVLTVPGSERSYDLAGLKPGTEYTVSIYGVLPDAFVSSNPLSAIFTT
notes: as for B1
As to B5, in assay [1], the binding result is reported as “binds”.

B6: Luk20 (designed binder)
chain: LPAPKNLVVSRVTEDSARLSWYHAIHRLNHFDSFLIQYQESEKVGEAIVLTVPGSERSYDLTGLKPGTEYTVSIYGVLPDAFVSSNPLSAIFTT
notes: as for B1
With B6, the binding result in assay [1] is recorded as “binds”.

B7: Luk188 (designed binder)
chain: LPAPKNLVVSRVTEDSARLSWTAPDAAFDSFHIHYWEFNPAGEAIVLTVPGSERSYDLTGLKPGTEYFVGIHGVKGGGISWPLSAIFTT
B7: the binding result in assay [5] is recorded as “binds”.

B8: Luk129 (designed binder)
chain: LPAPKNLVVSRVTEDSARLSWTAPDAAFDSFNINYPEEFHGGEAIVLTVPGSERSYDLTGLKPGTEYEVWIWGVKGGSSSNPLSAIFTT
With B8, the binding result in assay [6] is “binds”.

B9: Luk151 (designed binder)
chain: LPAPKNLVVSRVTEDSARLSWTAPDAAFDSFGITYTEVYWWGEAIVLTVPGSERSYDLTGLKPGTEYTVTIPGVKGGWISAPLSAIFTT
On to B9, for which the binding result in assay [6] is “binds”.

B10: Luk9 (designed binder)
chain: LPAPKNLVVSRVTEDSARLSWDRTYSLLNYFDSFLIQYQESEKVGEAIVLTVPGSERSYDLTGLKPGTEYTVSIYGVGGQHPTYESNPLSAIFTT
notes: as for B1
B10: the binding result in assay [7] is on record as “binds”.

B11: Luk357 (designed binder)
chain: LPAPKNLVVSRVTEDSARLSWTAPDAAFDSFTIHYFESLLTGEAISLVVPGSERSYDLTGLKPGTEYLVPIYGVKGGFISQPLIAIFTT
As to B11, the binding result in assay [5] is “binds”.

B12: Luk10 (designed binder)
chain: LPAPKNLVVSRVTEDSARLSWAASENAFVFDSFLIQYQESEKVGEAIVLTVPGSERSYDLTGLKPGTEYTVSIYGVGGKLHNQFEWLSNPLSAIFTT
notes: also called anti-LukD FN3 domain Luk10; not shown: C-terminal poly-histidine tag
Take B12: the binding result in assay [7] is given as “binds”.

B13: Luk17 (designed binder)
chain: LPAPKNLVVSRVTEDSARLSWTAPDAAFDSFWITYEEKFYRGEAIVLTVPGSERSYDLTGLKPGTEYKVWIVGVKGGQGSWPLSAIFTT
notes: also called Luk17 anti-LukAB FN3 domain; not shown: C-terminal poly-histidine tag
Regarding B13, the binding result in assay [1] is “binds”.
